These results are taken from the Human Domainome abundance scans (Beltran et al. 2025).

± gives the uncertainty stated by the source.

The data set is described as follows: abundance fitness (aPCA) (normalised: wild type 0, dead -1); higher = more abundant; growth selection in yeast, the domain comes from the species named. The conditions noted are these: Homo sapiens.
Consider “Lipoamide acyltransferase component of branched-chain alpha-keto acid dehydrogenase complex, mitochondrial K187L, P11182”, for which the abundance fitness is -0.126 ± 0.053.

The substance “Lipoamide acyltransferase component of branched-chain alpha-keto acid dehydrogenase complex, mitochondrial K187M, P11182” yielded an abundance fitness of -0.075 ± 0.12. To “Lipoamide acyltransferase component of branched-chain alpha-keto acid dehydrogenase complex, mitochondrial K187N, P11182” belongs -0.026 ± 0.072. To “Lipoamide acyltransferase component of branched-chain alpha-keto acid dehydrogenase complex, mitochondrial K187P, P11182” belongs 0.022 ± 0.049; to “Lipoamide acyltransferase component of branched-chain alpha-keto acid dehydrogenase complex, mitochondrial K187Q, P11182”, -0.06 ± 0.045. To “Lipoamide acyltransferase component of branched-chain alpha-keto acid dehydrogenase complex, mitochondrial K187R, P11182” belongs -0.04 ± 0.039. For “Lipoamide acyltransferase component of branched-chain alpha-keto acid dehydrogenase complex, mitochondrial K187S, P11182”, the abundance fitness was -0.045 ± 0.054. To “Lipoamide acyltransferase component of branched-chain alpha-keto acid dehydrogenase complex, mitochondrial K187T, P11182” belongs -0.097 ± 0.057. To “Lipoamide acyltransferase component of branched-chain alpha-keto acid dehydrogenase complex, mitochondrial K187V, P11182” belongs -0.139 ± 0.099. The result for “Lipoamide acyltransferase component of branched-chain alpha-keto acid dehydrogenase complex, mitochondrial K187W, P11182” reads -0.538 ± 0.05; that for “Lipoamide acyltransferase component of branched-chain alpha-keto acid dehydrogenase complex, mitochondrial K196A, P11182”, -0.054 ± 0.037; that for “Lipoamide acyltransferase component of branched-chain alpha-keto acid dehydrogenase complex, mitochondrial K196C, P11182”, -0.22 ± 0.051. For “Lipoamide acyltransferase component of branched-chain alpha-keto acid dehydrogenase complex, mitochondrial K196F, P11182”, the abundance fitness was -0.408 ± 0.062. To “Lipoamide acyltransferase component of branched-chain alpha-keto acid dehydrogenase complex, mitochondrial K196G, P11182” belongs -0.159 ± 0.036; to “Lipoamide acyltransferase component of branched-chain alpha-keto acid dehydrogenase complex, mitochondrial K196H, P11182”, -0.17 ± 0.062; to “Lipoamide acyltransferase component of branched-chain alpha-keto acid dehydrogenase complex, mitochondrial K196I, P11182”, -0.185 ± 0.068.

As to “Lipoamide acyltransferase component of branched-chain alpha-keto acid dehydrogenase complex, mitochondrial K196L, P11182”, the abundance fitness was -0.175 ± 0.04. The result for “Lipoamide acyltransferase component of branched-chain alpha-keto acid dehydrogenase complex, mitochondrial K196M, P11182” reads -0.142 ± 0.053; that for “Lipoamide acyltransferase component of branched-chain alpha-keto acid dehydrogenase complex, mitochondrial K196N, P11182”, -0.053 ± 0.076. The result for “Lipoamide acyltransferase component of branched-chain alpha-keto acid dehydrogenase complex, mitochondrial K196P, P11182” reads -0.051 ± 0.047; that for “Lipoamide acyltransferase component of branched-chain alpha-keto acid dehydrogenase complex, mitochondrial K196Q, P11182”, -0.077 ± 0.047.

In the case of “Lipoamide acyltransferase component of branched-chain alpha-keto acid dehydrogenase complex, mitochondrial K196R, P11182”, the abundance fitness is -0.026 ± 0.039. To “Lipoamide acyltransferase component of branched-chain alpha-keto acid dehydrogenase complex, mitochondrial K196S, P11182” belongs -0.121 ± 0.044; to “Lipoamide acyltransferase component of branched-chain alpha-keto acid dehydrogenase complex, mitochondrial K196T, P11182”, -0.079 ± 0.044; to “Lipoamide acyltransferase component of branched-chain alpha-keto acid dehydrogenase complex, mitochondrial K196V, P11182”, -0.124 ± 0.037. With “Lipoamide acyltransferase component of branched-chain alpha-keto acid dehydrogenase complex, mitochondrial K196W, P11182”, the abundance fitness is -0.52 ± 0.053.

In turn, “Lipoamide acyltransferase component of branched-chain alpha-keto acid dehydrogenase complex, mitochondrial K196Y, P11182” had an abundance fitness of -0.222 ± 0.058. The result for “Lipoamide acyltransferase component of branched-chain alpha-keto acid dehydrogenase complex, mitochondrial K202A, P11182” reads 0.039 ± 0.042; that for “Lipoamide acyltransferase component of branched-chain alpha-keto acid dehydrogenase complex, mitochondrial K202C, P11182”, -0.282 ± 0.086. To “Lipoamide acyltransferase component of branched-chain alpha-keto acid dehydrogenase complex, mitochondrial K202D, P11182” belongs -0.215 ± 0.058.

“Lipoamide acyltransferase component of branched-chain alpha-keto acid dehydrogenase complex, mitochondrial K202E, P11182” came in with an abundance fitness of 0.069 ± 0.052.

In turn, “Lipoamide acyltransferase component of branched-chain alpha-keto acid dehydrogenase complex, mitochondrial K202G, P11182” returned an abundance fitness of -0.135 ± 0.038. Regarding “Lipoamide acyltransferase component of branched-chain alpha-keto acid dehydrogenase complex, mitochondrial K202I, P11182”, the abundance fitness was -0.017 ± 0.17.

“Lipoamide acyltransferase component of branched-chain alpha-keto acid dehydrogenase complex, mitochondrial K202L, P11182”: the abundance fitness was -0.118 ± 0.047. To “Lipoamide acyltransferase component of branched-chain alpha-keto acid dehydrogenase complex, mitochondrial K202M, P11182” belongs -0.089 ± 0.053; to “Lipoamide acyltransferase component of branched-chain alpha-keto acid dehydrogenase complex, mitochondrial K202P, P11182”, 0.011 ± 0.052; to “Lipoamide acyltransferase component of branched-chain alpha-keto acid dehydrogenase complex, mitochondrial K202Q, P11182”, -0.088 ± 0.049. The result for “Lipoamide acyltransferase component of branched-chain alpha-keto acid dehydrogenase complex, mitochondrial K202R, P11182” reads -0.001 ± 0.037; that for “Lipoamide acyltransferase component of branched-chain alpha-keto acid dehydrogenase complex, mitochondrial K202S, P11182”, -0.124 ± 0.049; that for “Lipoamide acyltransferase component of branched-chain alpha-keto acid dehydrogenase complex, mitochondrial K202T, P11182”, -0.211 ± 0.062. The result for “Lipoamide acyltransferase component of branched-chain alpha-keto acid dehydrogenase complex, mitochondrial K202V, P11182” reads -0.105 ± 0.044. Substance “Lipoamide acyltransferase component of branched-chain alpha-keto acid dehydrogenase complex, mitochondrial K202W, P11182” yielded an abundance fitness of -0.276 ± 0.056. The result for “Lipoamide acyltransferase component of branched-chain alpha-keto acid dehydrogenase complex, mitochondrial K211A, P11182” reads 0.066 ± 0.043; that for “Lipoamide acyltransferase component of branched-chain alpha-keto acid dehydrogenase complex, mitochondrial K211C, P11182”, -0.056 ± 0.053; that for “Lipoamide acyltransferase component of branched-chain alpha-keto acid dehydrogenase complex, mitochondrial K211D, P11182”, -0.076 ± 0.053. The result for “Lipoamide acyltransferase component of branched-chain alpha-keto acid dehydrogenase complex, mitochondrial K211E, P11182” reads -0.045 ± 0.039.
